Measurements from article PMC9325545, “Structure and Mutation of the Native Amine Dehydrogenase MATOUAmDH2” (Chembiochem, 2022).

Molecular target: MATOUAmDH2 (native amine dehydrogenase from the Marine Atlas of Tara Oceans Unigenes, MATOUv1)
Assay: crystal structure; complex with NADP+; space group P2(1)2(1)2(1); four molecules in the asymmetric unit, two dimers (A/D and B/C)

Question: How did the stoichiometry N turn out when “MATOUAmDH2 (native amine dehydrogenase from the Marine Atlas of Tara Oceans Unigenes, MATOUv1) (enzyme)” was run?
Answer: Its stoichiometry N is 2.
